From publication PMC11241417

Biological target: URH1p riboside hydrolase from Saccharomyces cerevisiae (S. cerevisiae) (UniProt Q04179)
Test: AUC; sedimentation velocity, absorbance 280 nm, 45,000 rpm; samples kept at 4 °C for two weeks; 2.6, 5.2, 10.4 and 15.6 µM; monomer to disulphide-linked dimer

ratio between monomeric and dimeric URH1p in the sample: 33%
stoichiometry N: 2
Substance: URH1p riboside hydrolase from Saccharomyces cerevisiae (from UniProt Q04179 2-340) (enzyme)
